Laboratory results taken from IntAct's records for PubMed 30659753.

B1: Protein KHNYN (Homo sapiens), O15037 (parent)
chain: MPTWGARPASPDRFAVSAEAENKVREQQPHVERIFSVGVSVLPKDCPDNPHIWLQLEGPKENASRAKEYLKGLCSPELQDEIHYPPKLHCIFLGAQGFFLDCLAWSTSAHLVPRAPGSLMISGLTEAFVMAQSRVEELAERLSWDFTPGPSSGASQCTGVLRDFSALLQSPGDAHREALLQLPLAVQEELLSLVQEASSGQGPGALASWEGRSSALLGAQCQGVRAPPSDGRESLDTGSMGPGDCRGARGDTYAVEKEGGKQGGPREMDWGWKELPGEEAWEREVALRPQSVGGGARESAPLKGKALGKEEIALGGGGFCVHREPPGAHGSCHRAAQSRGASLLQRLHNGNASPPRVPSPPPAPEPPWHCGDRGDCGDRGDVGDRGDKQQGMARGRGPQWKRGARGGNLVTGTQRFKEALQDPFTLCLANVPGQPDLRHIVIDGSNVAMVHGLQHYFSSRGIAIAVQYFWDRGHRDITVFVPQWRFSKDAKVRESHFLQKLYSLSLLSLTPSRVMDGKRISSYDDRFMVKLAEETDGIIVSNDQFRDLAEESEKWMAIIRERLLPFTFVGNLFMVPDDPLGRNGPTLDEFLKKPARTQGSSKAQHPSRGFAEHGKQQQGREEEKGSGGIRKTRETERLRRQLLEVFWGQDHKVDFILQREPYCRDINQLSEALLSLNF

Variants of: B1
Settings: with nedd8_human NEDD8, Q15843
Chain of nedd8_human NEDD8, Q15843 (Q15843 whole entry): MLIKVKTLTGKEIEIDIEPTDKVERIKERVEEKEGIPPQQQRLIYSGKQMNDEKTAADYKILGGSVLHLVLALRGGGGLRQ

Effect of a mutation on the interaction, decreasing interaction:
H651F
R659E
W647P
W647A
K652D
R664E
